Laboratory results: patent publication US20200062863A1 (CSL BEHRING, published 2020)
Several values for one entry are separate records, joined by “and”; a condition that tells them apart may be missing. Equal entries are not always repeated. Where two headings read alike, the source gives them in different places.

Tests used:
human Factor XIIa-beta = biological target: T1, human Factor XIIa-beta (human, UniProt P00748 354-615, limits assumed); assay: SPR (Biacore), purified IgG captured on anti-mouse Fc antibody, FXIIa beta 0-40 nM, 1:1 fit, 25 C
T1 construct: Bought from Enzyme Research Laboratories; also called FXIIa beta; FXIIa-beta
T1 sequence: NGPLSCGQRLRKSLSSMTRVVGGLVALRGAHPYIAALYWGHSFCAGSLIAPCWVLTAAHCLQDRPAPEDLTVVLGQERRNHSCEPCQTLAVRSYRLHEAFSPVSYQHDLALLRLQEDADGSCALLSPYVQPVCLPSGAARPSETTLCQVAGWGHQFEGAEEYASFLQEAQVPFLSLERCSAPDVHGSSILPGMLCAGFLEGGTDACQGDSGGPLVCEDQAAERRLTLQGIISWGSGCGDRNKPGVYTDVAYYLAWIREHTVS

human Factor XII = biological target: T2, human Factor XII (human, UniProt P00748 20-615); assay: SPR (Biacore), purified IgG captured on anti-mouse Fc antibody, FXII 0-500 nM, 1:1 fit, 25 C
T2 construct: Zymogen bought from Enzyme Research Laboratories; also called FXII
T2 sequence: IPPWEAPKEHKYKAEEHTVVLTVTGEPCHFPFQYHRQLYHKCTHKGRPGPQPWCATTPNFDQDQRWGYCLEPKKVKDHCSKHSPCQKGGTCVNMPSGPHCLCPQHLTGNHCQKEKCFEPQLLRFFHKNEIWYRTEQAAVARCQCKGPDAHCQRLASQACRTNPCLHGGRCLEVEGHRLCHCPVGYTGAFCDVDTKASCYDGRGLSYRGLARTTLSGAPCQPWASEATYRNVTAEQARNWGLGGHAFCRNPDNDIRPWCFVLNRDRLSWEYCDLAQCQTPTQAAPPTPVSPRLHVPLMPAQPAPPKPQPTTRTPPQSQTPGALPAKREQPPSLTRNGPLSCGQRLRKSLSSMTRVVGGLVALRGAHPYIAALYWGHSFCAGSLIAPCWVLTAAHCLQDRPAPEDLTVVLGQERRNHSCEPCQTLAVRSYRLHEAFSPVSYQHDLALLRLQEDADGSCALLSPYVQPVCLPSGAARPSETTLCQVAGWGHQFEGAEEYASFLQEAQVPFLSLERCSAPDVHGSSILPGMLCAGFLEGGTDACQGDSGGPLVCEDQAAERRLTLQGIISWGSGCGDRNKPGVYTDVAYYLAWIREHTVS

human FXIIa [1] = biological target: T3, human FXIIa (human, UniProt P00748 20-615, limits assumed)
T3 sequence: T2 sequence

human Factor XIIa-alpha = biological target: T4, human Factor XIIa-alpha (human, UniProt P00748 20-615); assay: cell-based or functional assay
T4 sequence: T2 sequence

human FXIIa [2] = biological target: T3, human FXIIa; remark: listed apart in the source
human FXIIa [3] = biological target: T3, human FXIIa; assay: competition phage ELISA on plate-coated FXIIa; competed binder: 3F7 Fab-phage at a fixed amount
human FXIIa [4] = biological target: T3, human FXIIa; assay: competition phage ELISA on plate-coated FXIIa; competed binder: 3H4 Fab-phage at a fixed amount
human FXIIa [5] = biological target: T3, human FXIIa; assay: competition phage ELISA on plate-coated FXIIa; competed binder: Inf4-phage (pTacInf4) at a fixed amount

| Substance | Kd (human Factor XIIa-beta) | Kd (human Factor XII) | m3 (parameter of the curve fit, printed in the legend box; x axis Ab in nM) of the inhibition of FXIIa amidolytic activity, OD405 (human FXIIa [1]) | % Inhibition, ratio FXIIa-alpha:Antibody 1:0.1 (human Factor XIIa-alpha) | % Inhibition, ratio FXIIa-alpha:Antibody 1:0.2 (human Factor XIIa-alpha) | % Inhibition, ratio FXIIa-alpha:Antibody 1:0.5 (human Factor XIIa-alpha) | % Inhibition, ratio FXIIa-alpha:Antibody 1:1 (human Factor XIIa-alpha) | % Inhibition, ratio FXIIa-alpha:Antibody 1:2 (human Factor XIIa-alpha) | % Inhibition, ratio FXIIa-alpha:Antibody 1:5 (human Factor XIIa-alpha) | % Inhibition, ratio FXIIa-alpha:Antibody 1:10 (human Factor XIIa-alpha) | IC50 (read off the curve) (human FXIIa [2]) | IC50 (read off the curve) (human FXIIa [3]) | IC50 (read off the curve) (human FXIIa [4]) | IC50 (read off the curve) (human FXIIa [5]) | % Inhibition, ratio FXIIa-alpha:inhibitor 1:1 (human Factor XIIa-alpha) |
| --- | --- | --- | --- | --- | --- | --- | --- | --- | --- | --- | --- | --- | --- | --- | --- |
| Anti-human FXII antibody (OT-2) | 0.76 nM | 0.69 nM | 12.9 and 13.5 | 21.6% | 37.7% | 76.6% | 92.7% | 96.9% | 100% | 100% |  |  |  |  |  |
| rHA-Infestin-4 (recombinant Infestin-4 fused to human albumin) |  |  |  |  |  |  |  |  |  |  | 9 nM | 5 nM | 5 nM | 3 nM | 90% |
